Assay results as given in US20240279281A1, “Peptide Inhibitors of Interleukin-23 Receptor” (Janssen Pharmaceutica NV, priority 2023, published 2024).
Starred links: 1 amine or outer side, 2 acyl side, 3 side chain; linkers in the order of their positions; H or OH if unused. Positions of bridges follow the written chain, without caps; N, C: chain ends. Non-standard residues stand in square brackets, D forms with d. No end group written: not given here. X1 = 3‑(7-(3-acetamidophenyl)-1H-indol-3-yl)‑2‑aminopropanoic acid, CC(=O)Nc1cccc(-c2cccc3c(CC(N[*:1])C(=O)[*:2])c[nH]c23)c1; X3 = 4‑(2-(4-(2-amino-2-carboxyethyl)phenoxy)ethyl)‑4‑methylmorpholin‑4‑ium, C[N+]1(CCOc2ccc(CC(N[*:1])C(=O)[*:2])cc2)CCOCC1; X10 = 2‑amino‑3‑(4-(2-guanidinoethoxy)phenyl)propanoic acid, N=C(N)NCCOc1ccc(CC(N[*:1])C(=O)[*:2])cc1; X7 = 2‑amino‑3‑(5-methylpyridin-3-yl)propanoic acid, Cc1cncc(CC(N[*:1])C(=O)[*:2])c1; Trp(7-(3-AcNH-Ph)) = CC(=O)Nc1cccc(-c2cccc3c(C[C@H](N)C(=O)O)c[nH]c23)c1; N‑methyl‑N‑acetyllysine = N-methyl-N-acetyllysine; 2Nal(6-OH) = N[C@@H](Cc1ccc2cc(O)ccc2c1)C(=O)O; Trp(7-Me) = Cc1cccc2c(C[C@H](N)C(=O)O)c[nH]c12; dLys(Me3) = C[N+](C)(C)CCCC[C@@H](N)C(=O)O; 3Pal(5-Me) = Cc1cncc(C[C@H](N)C(=O)O)c1; AEF = NCCOc1ccc(C[C@H](N)C(=O)O)cc1; αMeF = C[C@](N)(Cc1ccccc1)C(=O)O; 3Pal = N[C@@H](Cc1cccnc1)C(=O)O; Pen = CC(C)(S)[C@H](N)C(=O)O; dDab = NCC[C@@H](N)C(=O)O; αMeC = C[C@](N)(CS)C(=O)O; Thp = NC1(C(=O)O)CCOCC1; Abu = CC[C@H](N)C(=O)O; Ahp = NCCCCCCC(=O)O; Sar = CNCC(=O)O

B1: SEQ ID NO: 50 (peptide)
peptide: [dK](Me3)[Pen]NT[Trp(7-Me)]K(Ac)[Pen][2‑amino‑3‑(4-(2-aminoethoxy)phenyl)propanoic acid][2‑amino‑3‑(6-hydroxynaphthalen-2-yl)propanoic acid][Thp]EN[X7][Sar]
modifications: disulfide 2-7 (inferred); ends not checked
B2: SEQ ID NO: 413 (peptide)
peptide: [dDab](Ac)[Abu]NTWQC[AEF][2Nal(6-OH)][Thp]CN[3Pal][Sar]
modifications: not fully specified (bridges); ends and bridges not checked
B3: SEQ ID NO: 417 (peptide)
peptide: [Ahp][Pen]NT[Trp(7-Me)]K(Ac)[Pen][AEF][2Nal(6-OH)][Thp]EN[3Pal][Sar]
modifications: not fully specified (bridges); ends and bridges not checked
B4: SEQ ID NO: 51 (peptide)
peptide: R[Pen]NT[Trp(7-Me)]K(Ac)[Pen][AEF][2Nal(6-OH)][Thp]EN[3Pal(5-Me)][Sar]
modifications: disulfide 2-7 (inferred); ends not checked
B5: SEQ ID NO: 422 (peptide)
peptide: R[Pen]ET[Trp(7-Me)]K(Ac)[Pen][AEF][2Nal(6-OH)][Thp]K(Ac)N[3Pal][Sar]
modifications: not fully specified (bridges); ends and bridges not checked
B6: SEQ ID NO: 424 (peptide)
peptide: R[Pen]NT[Trp(7-Me)]K(Ac)[Pen][AEF][2Nal(6-OH)][Thp]KN[3Pal][Sar]
modifications: not fully specified (residue 11, bridges); ends and bridges not checked; also: K11: lipidated lysine
B7: SEQ ID NO: 52 (peptide)
peptide: R[Pen]NT[Trp(7-Me)]K(Ac)[Pen][AEF][2Nal(6-OH)][Thp]EN[3Pal(5-Me)][Sar]
modifications: disulfide 2-7 (inferred); ends not checked
B8: SEQ ID NO: 429 (peptide)
peptide: R[Pen]NT[Trp(7-Me)]K(Ac)[Pen][2‑amino‑3‑(4-(2-aminoethoxy)phenyl)propanoic acid][2‑amino‑3‑(6-hydroxynaphthalen-2-yl)propanoic acid][Thp]ENA[Sar]
modifications: not fully specified (bridges); ends and bridges not checked
B9: SEQ ID NO: 430 (peptide)
peptide: R[Pen]QTWQ[Pen][2‑amino‑3‑(4-(2-aminoethoxy)phenyl)propanoic acid][2‑amino‑3‑(6-hydroxynaphthalen-2-yl)propanoic acid][Thp]EN[Thp]
modifications: not fully specified (bridges); ends and bridges not checked
B10: SEQ ID NO: 431 (peptide)
peptide: R[Pen]NT[Trp(7-Me)]K(Ac)[Pen][2‑amino‑3‑(4-(2-aminoethoxy)phenyl)propanoic acid][2‑amino‑3‑(6-(2-hydroxyphenyl)naphthalen-2-yl)propanoic acid][Thp]EN[Thp]
modifications: not fully specified (bridges); ends and bridges not checked
B11: SEQ ID NO: 53 (peptide)
peptide: R[Pen]NT[Trp(7-(3-AcNH-Ph))]K(Ac)[Pen][AEF][2Nal(6-OH)][Thp]EN[3Pal(5-Me)][Sar]
modifications: disulfide 2-7 (inferred); ends not checked
B12: SEQ ID NO: 437 (peptide)
peptide: R[Pen]NT[Trp(7-Me)]K(Ac)[Pen][2‑amino‑3‑(4-(2-aminoethoxy)phenyl)propanoic acid][2‑amino‑3‑(5-methoxynaphthalen-2-yl)propanoic acid][Thp]EN[αMeF]
modifications: disulfide 2-7 (inferred); ends not checked
B13: SEQ ID NO: 439 (peptide)
peptide: R[Pen]NT[Trp(7-Me)]K(Ac)[Pen][2‑amino‑3‑(4-(2-aminoethoxy)phenyl)propanoic acid][2‑amino‑3‑(5-carbamoylnaphthalen-2-yl)propanoic acid][Thp]EN[αMeF]
modifications: disulfide 2-7 (inferred); ends not checked
B14: SEQ ID NO: 441 (peptide)
peptide: R[Pen]NT[Trp(7-Me)]K(Ac)[Pen][2‑amino‑3‑(4-(2-aminoethoxy)phenyl)propanoic acid][2‑amino‑3‑(6-hydroxynaphthalen-2-yl)propanoic acid][Thp]EN[2‑amino‑3‑(5-carbamoylpyridin-3-yl)propanoic acid][Sar]
modifications: disulfide 2-7 (inferred); ends not checked
B15: SEQ ID NO: 445 (peptide)
peptide: R[Pen]NT[Trp(7-Me)]K(Ac)[Pen][2‑amino‑3‑(4-(2-aminoethoxy)phenyl)propanoic acid][2‑amino‑3‑(5-methylnaphthalen-2-yl)propanoic acid][Thp]EN[αMeF]
modifications: disulfide 2-7 (inferred); ends not checked
B16: SEQ ID NO: 447 (peptide)
peptide: [Ahp][Pen]NT[Trp(7-Me)]K(Ac)[Pen][2‑amino‑3‑(4-(2-aminoethoxy)phenyl)propanoic acid][2‑amino‑3‑(6-hydroxynaphthalen-2-yl)propanoic acid][Thp]EN[3Pal][Sar]
modifications: disulfide 2-7 (inferred); ends not checked
B17: SEQ ID NO: 6 (peptide)
peptide: R[Abu]NT[Trp(7-(3-AcNH-Ph))]K(Ac)[αMeC][AEF][2Nal(6-OH)][Thp]EN[3Pal][Sar]
modifications: ends and bridges not checked
B18: SEQ ID NO: 7 (peptide)
peptide: R[Abu]NTWK(Ac)[αMeC][X10][2Nal(6-OH)][Thp]K(Ac)N[3Pal][Sar]
modifications: ends and bridges not checked
B19: SEQ ID NO: 8 (peptide)
peptide: [dLys(Me3)]CNT[Trp(7-Me)]K(Ac)[αMeC][2‑amino‑3‑(4-(2-aminoethoxy)phenyl)propanoic acid][2‑amino‑3‑(6-hydroxynaphthalen-2-yl)propanoic acid][Thp]EN[3Pal][Sar]
modifications: ends and bridges not checked
B20: SEQ ID NO: 9 (peptide)
peptide: [Pen]NT[X1]K(Ac)[Pen][X10][2‑amino‑3‑(6-hydroxynaphthalen-2-yl)propanoic acid][Thp]EN[3Pal][Sar]
modifications: ends and bridges not checked
B21: SEQ ID NO: 56 (peptide)
peptide: [Pen]NT[Trp(7-Me)]K(Ac)[Pen][X3][2Nal(6-OH)][Thp]EN[3Pal][Sar]
modifications: disulfide 1-6 (inferred); ends not checked
B22: SEQ ID NO: 57 (peptide)
peptide: R[Pen]NT[Trp(7-Me)]K(Ac)[Pen][AEF][2Nal(6-OH)][Thp]ENH[Sar]
modifications: disulfide 2-7 (inferred); ends not checked
B23: SEQ ID NO: 58 (peptide)
peptide: R[Pen]NT[Trp(7-Me)]K(Ac)[Pen][5‑(4-(2-amino-2-carboxyethyl)phenoxy)‑N,N,N‑trimethylpentan‑1‑aminium][2Nal(6-OH)][Thp]K(Ac)N[3Pal][Sar]
modifications: disulfide 2-7 (inferred); ends not checked
B24: SEQ ID NO: 62 (peptide)
peptide: [Pen]NT[Trp(7-(3-AcNH-Ph))]K(Ac)[Pen][X3][2Nal(6-OH)][Thp][N‑methyl‑N‑acetyllysine]NH[Sar]
modifications: disulfide 1-6 (inferred); ends not checked

Biological target: T1, interleukin-23 receptor (IL-23R), Q5VWK5
T1 chain: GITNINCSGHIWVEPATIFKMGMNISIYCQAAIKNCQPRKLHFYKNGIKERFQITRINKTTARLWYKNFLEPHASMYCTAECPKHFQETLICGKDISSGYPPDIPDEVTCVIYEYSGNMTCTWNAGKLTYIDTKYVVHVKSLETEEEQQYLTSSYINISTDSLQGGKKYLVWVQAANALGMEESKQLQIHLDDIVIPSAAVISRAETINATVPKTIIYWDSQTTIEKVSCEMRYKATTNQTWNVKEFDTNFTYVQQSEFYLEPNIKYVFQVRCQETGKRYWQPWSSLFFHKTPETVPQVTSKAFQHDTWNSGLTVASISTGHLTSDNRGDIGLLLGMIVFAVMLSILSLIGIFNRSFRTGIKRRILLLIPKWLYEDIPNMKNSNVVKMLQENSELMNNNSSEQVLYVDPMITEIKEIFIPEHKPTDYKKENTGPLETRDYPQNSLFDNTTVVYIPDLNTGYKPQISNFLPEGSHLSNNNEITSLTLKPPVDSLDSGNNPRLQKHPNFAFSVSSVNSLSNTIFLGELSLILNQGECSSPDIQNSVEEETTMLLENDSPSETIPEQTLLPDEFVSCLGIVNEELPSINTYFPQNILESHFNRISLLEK
Test: cell-based or functional assay

IL23R Reporter Assay IC50 [nM]	PBMC pSTAT3 IC50	Binder
< 10		B1
< 10	< 0.1 nM	B2
< 10	< 10 pM	B3
< 10		B4
< 10	< 10 pM	B5
> 100	< 1 nM	B6
< 10		B7
> 100	> 1 nM	B8
> 100	> 1 nM	B9
> 100	> 1 nM	B10
< 10		B11
> 100	> 1 nM	B12
> 100	< 1 nM	B13
< 10	< 0.1 nM	B14
> 100	> 1 nM	B15
> 100	< 1 nM	B16
< 10	< 0.1 nM	B17
< 10	< 0.1 nM	B18
< 10	< 10 pM	B19
< 10	> 1 nM	B20
< 10	< 10 pM	B21
	< 1 nM	B22
< 10	< 0.1 nM	B23
< 10	< 1 nM	B24
